In patent US6646113:

Biological target: spliceosomal snRNP core Sm proteins, endogenous in cell extracts
Assay: co-IP with Y12 from transfected 293T cells, Western blot

amount co-immunoprecipitated relative to wild-type SMN (fraction of wild type): 0.33
Substance: myc-tagged SMNΔC26 (from UniProt Q16637 1-268)
